Assay [1] has as its target IgG1 Fc/Fc* bispecific antibody. The experiment in a line: flow cytometry sandwich: antibody displayed on CHO cells by CSCP FcγR, detected with labeled Ab2; signal needs both capture and detection. (In general: Flow cytometry measures light scatter and fluorescence of single cells or particles in a stream.)
Assay [2] addresses IgG1 Fc/Fc monospecific antibody. The assay is described as above.
Assay [3] deals with IgG4 Fc/Fc* bispecific antibody. The description is as above.
The target in assay [4] is IgG4 Fc*/Fc* monospecific antibody. Described as above.
Assay [5] has as its target IgG4 Fc/Fc monospecific antibody. Described as above.
In assay [6] the target is IgG1 Fc/Fc* bispecific antibody. The experiment in a line: flow cytometry sandwich: antibody displayed on CHO cells by CSCP ScFv*-FcγR, hFc block, detected with Alexa 488-labeled Ab2; signal needs both capture and detection. The protocol: (§1) Conversely, the Ab6-derived anti-Fc*-specific ScFv*-FcγR surface capture system was tested for its ability to detect and enrich for cells that produce bispecific antibodies. […] The Ab6-derived anti-Fc*-specific ScFv*-FcγR surface capture cell line was able to detect and distinguish the bispecific antibody (Fc/Fc*) over the Fc*/Fc* or Fc/Fc monospecific antibodies using the Fc-specific Ab2 as the detection molecule (Table 4). The FcγR surface capture cell line was not able to distinguish between the Fc/Fc*, Fc*/Fc*, and Fc/Fc IgG4 species.

Assay [7] addresses IgG1 Fc*/Fc* monospecific antibody. The assay is described as above. The protocol:
as §1

The target of assay [8] is IgG1 Fc/Fc monospecific antibody. The description is as above. The protocol: as §1
In assay [9] the target is T1, human Fc homodimer (human, UniProt P01861 120-325 = IgG part).
T1 construct: His 95 and Tyr 96 (IMGT) in CH3; also called Fc/Fc; hFc
The experiment in a line: SPR (Biacore 2000), antibody captured on anti-mouse-Fc surface, Fc dimer injected. The protocol:
(§2) Measurements to determine binding affinities and kinetic constants were made on a Biacore 2000 instrument. Antibodies (each of Ab1-Ab8) were captured onto an anti-mouse-Fc sensor surface (Mab capture format), and human Fc (SEQ ID NO 26) homodimers, human Fc* homodimers (SEQ ID NO:42), or Fc/Fc* heterodimers were injected over the surface. Kinetic association (kₐ) and dissociation (kd) rate constants were determined by processing and fitting the data to a 1:1 binding model using Scrubber 2.0 curve fitting software.

In assay [10] the target is T2, human Fc* homodimer (human).
T2 construct: also called Fc*/Fc*; human ΔAdpFc polypeptide
The experiment in a line: SPR (Biacore 2000), antibody captured on anti-mouse-Fc surface, Fc dimer injected, 1:1 fit. The protocol: as §2
On the technique in general: Surface plasmon resonance follows binding to a sensor surface in real time, without labels.

In assay [11] the target is IgG1 Fc/Fc* bispecific antibody. The experiment in a line: flow cytometry sandwich: antibody displayed on CHO cells by CSCP FcγR, detected with FITC-labeled Ab6; signal needs both capture and detection.
For assay [12], the target named is IgG1 Fc*/Fc* monospecific antibody. Described as above.
Assay [13] deals with IgG1 Fc/Fc monospecific antibody. The assay is described as above.
Assay [14] addresses IgG1 Fc/Fc* bispecific antibody. Put plainly: flow cytometry sandwich: antibody displayed on CHO cells by CSCP ScFv-FcγR, hFc block, detected with FITC-labeled Ab6; signal needs both capture and detection. The protocol: (§3) The Ab2-derived anti-Fc-specific ScFv-FcγR surface capture system was tested for its ability to detect and enrich for cells that produce bispecific antibodies. To assess the ability to detect bispecific antibodies, which harbor the 95R/435R-96F/436F substitution in one of the CH3 domains (designated Fc*), various antibodies were expressed in the Ab2-derived anti-Fc-specific ScFv-FcγR surface capture cell line, using hFc as the blocking molecule, and a FITC-labeled Ab6 anti-Fc* antibody (e.g., mAb with HC of SEQ ID NO:40, and LC of SEQ ID NO:41) as the detection molecule. The Ab2-derived anti-Fc-specific ScFv-FcγR surface capture cell line was able to detect and distinguish the bispecific antibody (Fc/Fc*) over any Fc*/Fc* or Fc/Fc monospecific antibodies using the Fc*-specific Ab6 as the detection molecule (Table 4). The wildtype FcγR surface capture cell line was not able to distinguish between the Fc/Fc*, Fc*/Fc*, and Fc/Fc IgG4 species, since FcγR is unable to bind, or binds at very low affinity to IgG4.

Assay [15] deals with IgG1 Fc*/Fc* monospecific antibody. The description is as above. The protocol:
as §3

Assay [16] addresses IgG1 Fc/Fc monospecific antibody. Described as above. The protocol:
as §3

For assay [17], the target named is IgG4 Fc/Fc* bispecific antibody. The description is as above. The protocol: as §3
The target in assay [18] is IgG4 Fc*/Fc* monospecific antibody. The description is as above. The protocol: as §3
Assay [19] addresses IgG4 Fc/Fc monospecific antibody. The description is as above. The protocol: as §3

T1 sequence (P01861 other isoform, or with tags, fused parts or gaps limits assumed): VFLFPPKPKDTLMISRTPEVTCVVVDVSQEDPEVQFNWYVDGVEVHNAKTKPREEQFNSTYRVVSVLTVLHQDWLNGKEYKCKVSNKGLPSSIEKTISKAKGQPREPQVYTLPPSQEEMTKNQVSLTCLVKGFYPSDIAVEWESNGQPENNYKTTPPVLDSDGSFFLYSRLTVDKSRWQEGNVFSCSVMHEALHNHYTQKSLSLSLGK

B1: Ab2 (antibody, V domains shown)
VH: QLQQSGAELAKPGASVKMSCKASGYTFTNYWIHWEKQRPEQGLEWIGYINPNTGHTEYNQKFKDKATLTADRSSSTAYMQLSSLTSEDSAVYFCARTYSGSSHFDYWGQGTTL
VL: DIVMTQTPVSLPVSLGDQASISCRSSQSLVHNNGDTFLHWYLQKPGQSPKLLIYKVSNRFSGVPDRFSGSGSGTDFTLKISRVEAEDLGVYFCSQTTLIPRTFGGGTKLEI
notes: From Velocimmune mice, captured by anti-mouse-Fc in SPR; also called Fc-specific Ab2; Ab2 anti-Fc antibody
Turning to B1, the “Mean Fluorescence Intensity (MFI)” value in assay [1] is 500 MFI; in assay [2] it was 350 MFI; in [3], 200 MFI; in [4] it was 200 MFI; in assay [5] it was 200 MFI; in [6], 150 MFI. Further, the “Mean Fluorescence Intensity (MFI)” value in [7] and in assay [8] was 10 MFI in each case.

B2: Ab6 (antibody, mouse IgG2a, kappa, V domains shown)
VH: EVQLVESGGAIVKPGGSHRVSCEASGFTFSNAWMSWVRQAPGRGLEWVGRILSKTDGGTTDYAAPVKDRFTISRDDSKNMLFLQMDSLKIEDTAVYFCTTADFWSAYSSDYWGQGTLVTVSS
VL: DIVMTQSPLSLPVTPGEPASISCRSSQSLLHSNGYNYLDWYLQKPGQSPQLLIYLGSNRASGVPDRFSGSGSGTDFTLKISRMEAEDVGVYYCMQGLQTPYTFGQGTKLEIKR
notes: also called Fc*-specific Ab6; Ab6 anti-Fc* antibody
What is called Kd is the equilibrium constant for the complex coming apart. A lower Kd goes with higher affinity. As a reminder, the koff is the rate constant with which the complex falls apart. The low end stands for a long-lived complex, the high end for a short-lived complex. As a reminder, the kon is the second-order rate constant of association. For orientation: t½ means the time needed for the level to fall by half in the phase considered. A lower t½ goes with rapid decline. Consider B2, for which the binding result in assay [9] is on record as “no binding”. Binding in [10] was characterised by a dissociation constant (Kd) of 679 pM. Moreover, the koff in [10] was 0.000593 s⁻¹. This molecule also gave a kon in assay [10] of 873000 M⁻¹ s⁻¹. Besides, the t½ in [10] is 19 min. Also, the “Mean Fluorescence Intensity (MFI)” value stood at 200 MFI in assay [11]; 200 MFI in assay [12]; 200 MFI in assay [13]; 500 MFI in assay [14]; 15 MFI in assay [15]; 15 MFI in assay [16]. Besides, the entries for the “Mean Fluorescence Intensity (MFI)” value in assay [17], in assay [18] and in assay [19] were 500 MFI, 15 MFI and 15 MFI, respectively.

The values are drawn from patent US20140072980A1 (Regeneron, published 2014).
